Series [1] deals with myosin. As to the kind of experiment: SDS-PAGE analysis of protein cross-linking, pork extract. The following applies: for protein cross-linking (SDS-PAGE): treatment with the named enzyme alone, vs reference. The format is biochemical. The procedure:
(§1) Protein Extractions: • 1. Brine was made using 2% NaCl and 0.3% STPP • 2. 20 g portions of meat were placed in 250 ml baffled shake flasks • 3. 60 ml of brine were added to each shake flask. • 4. The shake flasks were placed on a rotary shaker (Certomat R, Braun Int.); 120 min at room temperature and 180 rpm • 5. The meat-brine suspension was centrifuged for 60 min at 10000 g and 5° C. • 6. The fat particles were removed by filtering the supernatant through a 0.8 mm grid • 7. The meat-protein extract (supernatant) was stored at −18° C. Dialysis was carried out in Slide-A-Lyzer Dialysis Cassette from Pierce (Order nr: 66810). The dialysis was carried out at 4° C. overnight with one shift of dialysis buffer. Sample Preparation/Enzyme Treatment for SDS-PAGE Analysis Enzyme treatment of the protein extracts prior to SDS-PAGE analysis was done as follows: Tyrosinase was added to a final concentration of 15.5 nkat/ml extract (corresponding to 0.015 mg tyrosinase per ml extract) and incubated for 60 min at 40° C. TGase was added to a final concentration of 2.5 nkat/ml extract (corresponding to 0.015 mg TGase pr. ml extract) and incubated for 60 min at 40° C. sulfhydryl oxidase was added to a final concentration of 0.0033 (low sulfhydryl oxidase) or 0.033 (high sulfhydryl oxidase) nkat/ml. It was always added prior to or simultaneously with other enzyme treatment. If added prior to other enzyme treatment, an incubation time of 60 min at room temperature was applied. SDS-Page Analysis: SDS-PAGE was carried out on Pre-cast Novex Bis-Tris gels (Invitrogen, Carlsbad Calif., USA) according to manufacturers' protocol. For non-reducing SDS-PAGE, DTT was left out of the sample buffer.

The subject of series [2] is tyrosinase. As to the kind of experiment: Tyrosinase spot assay and test of inhibition (skimmed milk). The following applies: activity spot test, cysteine and enzyme in contact about 1 min before adding the substrate. The format is biochemical, Hypocrea jecorina. How it is done: Tyrosinase Spot Assay and Test of Inhibition Spot assay of tyrosinase activity was determined by adding 11 nkat of tyrosinase to 1 ml of skimmed milk. Red colour formation within 5-10 seconds is an indication of high of tyrosinase activity. To test for tyrosinase inhibition, either the inhibitor is mixed with tyrosinase before addition to the milk or the inhibitor is added to the milk prior to tyrosinase addition. The inhibitors tested were free cysteine at final concentrations of 1 or 0.1 mM or meat extracts diluted 10 times in the final sample.

Series [3] concerns myosin. Kind of series: SDS-PAGE analysis of protein cross-linking, beef extract. It counts as biochemical. The following applies: for protein cross-linking (SDS-PAGE): treatment with the named enzyme alone, vs reference. The procedure: as §1, with “C.” for “C. Dialysis was carried out in Slide-A-Lyzer Dialysis Cassette from Pierce (Order nr: 66810). The dialysis was carried out at 4° C. overnight with one shift of dialysis buffer.”

For series [4] the following is noted: according to supplier; cited from earlier work.
Series [5] deals with myosin. Kind of series: SDS-PAGE analysis of protein cross-linking, lamb extract. It counts as biochemical. The note with it: treatment with the named enzyme alone, vs reference. How it is done: as §1, with “C.” for “C. Dialysis was carried out in Slide-A-Lyzer Dialysis Cassette from Pierce (Order nr: 66810). The dialysis was carried out at 4° C. overnight with one shift of dialysis buffer.”, “SDS-Page Analysis: SDS-PAGE was carried out on Pre-cast Novex Bis-Tris gels (Invitrogen, Carlsbad Calif., USA) according to manufacturers' protocol. For non-reducing SDS-PAGE, DTT was left out of the sample buffer.” left out

Series [6] concerns myosin. As to the kind of experiment: SDS-PAGE analysis of protein cross-linking, turkey extract. It counts as biochemical. The note with it: treatment with the named enzyme alone, vs reference. How it is done: as §1, with “C.” for “C. Dialysis was carried out in Slide-A-Lyzer Dialysis Cassette from Pierce (Order nr: 66810). The dialysis was carried out at 4° C. overnight with one shift of dialysis buffer.”, “SDS-Page Analysis: SDS-PAGE was carried out on Pre-cast Novex Bis-Tris gels (Invitrogen, Carlsbad Calif., USA) according to manufacturers' protocol. For non-reducing SDS-PAGE, DTT was left out of the sample buffer.” left out

In series [7] the test system is myosin. As to the kind of experiment: SDS-PAGE analysis of protein cross-linking, cod extract. The note with it: treatment with the named enzyme alone, vs reference. The format is biochemical. The procedure: as §1, with “C.” for “C. Dialysis was carried out in Slide-A-Lyzer Dialysis Cassette from Pierce (Order nr: 66810). The dialysis was carried out at 4° C. overnight with one shift of dialysis buffer.”, “SDS-Page Analysis: SDS-PAGE was carried out on Pre-cast Novex Bis-Tris gels (Invitrogen, Carlsbad Calif., USA) according to manufacturers' protocol. For non-reducing SDS-PAGE, DTT was left out of the sample buffer.” left out

The subject of series [8] is myosin. Kind of series: SDS-PAGE analysis of protein cross-linking, chicken extract. The format is biochemical. The following applies: treatment with the named enzyme alone, vs reference. How it is done: as §1, with “C.” for “C. Dialysis was carried out in Slide-A-Lyzer Dialysis Cassette from Pierce (Order nr: 66810). The dialysis was carried out at 4° C. overnight with one shift of dialysis buffer.”, “SDS-Page Analysis: SDS-PAGE was carried out on Pre-cast Novex Bis-Tris gels (Invitrogen, Carlsbad Calif., USA) according to manufacturers' protocol. For non-reducing SDS-PAGE, DTT was left out of the sample buffer.” left out

For series [9] the following is noted: according to supplier; cited from earlier work. The source holds these as a separate data set.
Series [10] is described as follows: Tyrosinase activity (nkat). The format is biochemical. The note with it: enzyme used in the examples. How it is done: One unit of tyrosinase activity—1 nkat is defined as the amount of enzyme that converts 1 nmol of L-DOPA into DOPA-quinone pr. second at pH 7 and 25° C.

Entries after “also recorded” stand apart in the source; their conditions may differ.

For the molecule `O=P(O)(O)OP(=O)(O)OP(=O)(O)O` [STPP, Sodium tripolyphosphate], the “effect of removing STPP on tyrosinase cross-linking (SDS-PAGE)” value in [1] (pork extract dialysed against a solution free of STPP) is recorded as “no further efficiency of tyrosinase cross-linking was observed”.

For the molecule `[Cu]` [copper], in [1] (pork extract, results not shown), the “effect of extra copper on tyrosinase activity” value is given as “did not seem to enhance tyrosinase activity”.

As for `N[C@@H](CS)C(=O)O` [cysteine], the “cysteine concentration giving inhibition of the tyrosinase” value in series [2] is reported as “above 10 μM”; in [2] (listed as free cysteine), “about 10 μM”.

B1: TGase: TGase (Activa MP; Ajinomoto), well-known protein cross-linking enzyme used as positive reference (protein, UniProt P81453 77-407, looked up)
Protein-glutamine …: DSDDRVTPPAEPLDRMPDPYRPSYGRAETVVNNYIRKWQQVYSHRDGRKQQMTEEQREWLSYGCVGVTWVNSGQYPTNRLAFASFDEDRFKNELKNGRPRSGETRAEFEGRVAKESFDEEKGFQRAREVASVMNRALENAHDESAYLDNLKKELANGNDALRNEDARSPFYSALRNTPSFKERNGGNHDPSRMKAVIYSKHFWSGQDRSSSADKRKYGDPDAFRPAPGTGLVDMSRDRNIPRSPTSPGEGFVNFDYGWFGAQTEADADKTVWTHGNHYHAPNGSLGAMHVYESKFRNWSEGYSDFDRGAYVITFIPKSWNTAPDKVKQGWP
As for B1, the “protein cross-linking (SDS-PAGE)” value in series [3], in series [1] (pork extract), in [5], in [6], in series [7] and in series [8] was “efficient” in each case. Further, the TGase activity in series [4] was 1666 nkat/g.

B2: TrTyr2: Tyrosinase (TrTyr2; VTT, Finland); tyrosinase 2 of Hypocrea jecorina, derived from SEQ ID NO 2 (protein, listed as Hypocrea jecorina)
chain: MLLSASLSALALATVSLAQGTTHIPVTGVPVSPGAAVPLRQNINDLAKSGPQWDLYVQAMYNMSKMDSHDPYSFFQIAGIHGAPYIEYNKAGAKSGDGWLGYCPHGEDLFISWHRPYVLLFEQALVSVAKGIANSYPPSVRAKYQAAAASLRAPYWDWAADSSVPAVTVPQTLKINVPSGSSTKTVDYTNPLKTYYFPRMSLTGSYGEFTGGGNDHTVRCAASKQSYPATANSNLAARPYKSWIYDVLTNSQNFADFASTSGPGINVEQIHNAIHWDGACGSQFLAPDYSGFDPLFFMHHAQVDRMWAFWEAIMPSSPLFTASYKGQSRFNSKSGSTITPDSPLQPFYQANGKFHTSNTVKSIQGMGYSYQGIEYWQKSQAQIKSSVTTIINQLYGPNSGKKRNAPRDFLSDIVTDVENLIKTRYFAKISVNVTEVTVRPAEINVYVGGQKAGSLIVMKLPAEGTVNGGFTIDNPMQSILHGGLRNAVQAFTEDIEVEILSKDGQAIPLETVPSLSIDLEVANVTLPSALDQLPKYGQRSRHRAKAAQRGHRFAVPHIPPL
modifications: signal peptide cleaved
Regarding B2, the “tyrosinase cross-linking with or without sulfhydryl oxidase-treatment (SDS-PAGE)” value in [3] is “able to cross-link proteins”. The “protein cross-linking (SDS-PAGE)” value in series [3] is “indicating protein cross-linking”; in series [1] (pork extract), “no cross-linking seems to take place”; in series [5], “varying degrees of myosin-band fading; also recorded: least extensive fading of the myosin band”; in [6], “varying degrees of myosin-band fading”; in [7], “the myosin band disappears entirely; also recorded: fading of the myosin band is most pronounced”; in series [8] it was “varying degrees of myosin-band fading; also recorded: least extensive fading of the myosin band”. Besides, in series [9], the tyrosinase activity is given as 1067 nkat/ml. Besides, the specific activity result in [10] is reported as “about 300 nkat/mg”. Also, in [1] (pork extract dialysed against the same solution as used for extraction), the “tyrosinase activity after dialysis of extract (SDS-PAGE)” value is on record as “rendered the tyrosinase active”. In series [1] (ten times dilution of the pork extract prior to tyrosinase treatment, results not shown), the “tyrosinase activity after dilution of extract (SDS-PAGE)” value was “rendered the enzyme active”.

Source of the values: patent US20110123676A1, “ENZYMATIC TREATMENT OF A PROTEINACEOUS SUBSTRATE BY ENZYMATIC REMOVAL OF FREE THIOLS” (priority 2008, published 2011).
